Reference: IntAct's records for PubMed 22505024

B1: ERBB receptor feedback inhibitor 1 (Homo sapiens), Q9UJM3 (parent)
chain: MSIAGVAAQEIRVPLKTGFLHNGRAMGNMRKTYWSSRSEFKNNFLNIDPITMAYSLNSSAQERLIPLGHASKSAPMNGHCFAENGPSQKSSLPPLLIPPSENLGPHEEDQVVCGFKKLTVNGVCASTPPLTPIKNSPSLFPCAPLCERGSRPLPPLPISEALSLDDTDCEVEFLTSSDTDFLLEDSTLSDFKYDVPGRRSFRGCGQINYAYFDTPAVSAADLSYVSDQNGGVPDPNPPPPQTHRRLRRSHSGPAGSFNKPAIRISNCCIHRASPNSDEDKPEVPPRVPIPPRPVKPDYRRWSAEVTSSTYSDEDRPPKVPPREPLSPSNSRTPSPKSLPSYLNGVMPPTQSFAPDPKYVSSKALQRQNSEGSASKVPCILPIIENGKKVSSTHYYLLPERPPYLDKYEKFFREAEETNGGAQIQPLPADCGISSATEKPDSKTKMDLGGHVKRKHLSYVVSP
partner: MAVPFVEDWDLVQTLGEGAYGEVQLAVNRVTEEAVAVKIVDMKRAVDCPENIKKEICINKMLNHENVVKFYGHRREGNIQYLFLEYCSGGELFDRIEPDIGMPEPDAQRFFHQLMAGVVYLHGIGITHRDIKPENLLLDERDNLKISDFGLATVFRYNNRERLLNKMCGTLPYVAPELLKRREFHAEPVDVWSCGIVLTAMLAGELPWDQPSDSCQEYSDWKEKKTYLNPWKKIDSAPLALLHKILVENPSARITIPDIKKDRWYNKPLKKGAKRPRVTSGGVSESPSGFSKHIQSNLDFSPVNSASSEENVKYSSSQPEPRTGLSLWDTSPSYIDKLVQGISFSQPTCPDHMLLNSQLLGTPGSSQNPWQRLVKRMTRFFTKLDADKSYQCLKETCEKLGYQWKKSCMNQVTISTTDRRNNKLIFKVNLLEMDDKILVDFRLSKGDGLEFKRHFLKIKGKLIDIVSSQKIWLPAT

Variants of: B1
Settings: with chk1_human CHEK1, O14757

effect of a mutation on the interaction | Variant
decreasing interaction | MSIAGVAAQEIRVPLKTGFLHNGRAMGNMRKTYWSSRSEFKNNFLNIDPITMAYSLNSSAQERLIPLGHASKSAPMNGHCFAENGPSQKSSLPPLLIPPSENLGPHEEDQVVCGFKKLTVNGVCASTPPLTPIKNSPSLFPCAPLCERGSRPLPPLPISEALSLDDTDCEVEFLTSSDTDFLLEDSTLSDFKYDVPGRRSFRGCGQINYAYFDTPAVSAADLSYVSDQNGGVPDPNPPPPQTHRRLRRSHAGPAGSFNKPAIRISNCCIHRASPNSDEDKPEVPPRVPIPPRPVKPDYRRWSAEVTSSTYSDEDRPPKVPPREPLSPSNSRTPSPKSLPSYLNGVMPPTQSFAPDPKYVSSKALQRQNSEGSASKVPCILPIIENGKKVSSTHYYLLPERPPYLDKYEKFFREAEETNGGAQIQPLPADCGISSATEKPDSKTKMDLGGHVKRKHLSYVVSP [S251A]
decreasing interaction | MSIAGVAAQEIRVPLKTGFLHNGRAMGNMRKTYWSSRSEFKNNFLNIDPITMAYSLNSSAQERLIPLGHASKSAPMNGHCFAENGPSQKSSLPPLLIPPSENLGPHEEDQVVCGFKKLTVNGVCASTPPLTPIKNSPSLFPCAPLCERGSRPLPPLPISEALSLDDTDCEVEFLTSSDTDFLLEDSTLSDFKYDVPGRRSFRGCGQINYAYFDTPAVSAADLSYVSDQNGGVPDPNPPPPQTHRRLRRAHSGPAGSFNKPAIRISNCCIHRASPNSDEDKPEVPPRVPIPPRPVKPDYRRWSAEVTSSTYSDEDRPPKVPPREPLSPSNSRTPSPKSLPSYLNGVMPPTQSFAPDPKYVSSKALQRQNSEGSASKVPCILPIIENGKKVSSTHYYLLPERPPYLDKYEKFFREAEETNGGAQIQPLPADCGISSATEKPDSKTKMDLGGHVKRKHLSYVVSP [S249A]

Variants of: B1
Settings: with chk1_human CHEK1, O14757
Remark: another data set of the same source

effect of a mutation on the interaction | Variant
decreasing interaction | MSIAGVAAQEIRVPLKTGFLHNGRAMGNMRKTYWSSRSEFKNNFLNIDPITMAYSLNSSAQERLIPLGHASKSAPMNGHCFAENGPSQKSSLPPLLIPPSENLGPHEEDQVVCGFKKLTVNGVCASTPPLTPIKNSPSLFPCAPLCERGSRPLPPLPISEALSLDDTDCEVEFLTSSDTDFLLEDSTLSDFKYDVPGRRSFRGCGQINYAYFDTPAVSAADLSYVSDQNGGVPDPNPPPPQTHRRLRRSHSGPAGSFNKPAIRISNCCIHRASPNSDEDKPEVPPRVPIPPRPVKPDYRRWAAEVTSSTYSDEDRPPKVPPREPLSPSNSRTPSPKSLPSYLNGVMPPTQSFAPDPKYVSSKALQRQNSEGSASKVPCILPIIENGKKVSSTHYYLLPERPPYLDKYEKFFREAEETNGGAQIQPLPADCGISSATEKPDSKTKMDLGGHVKRKHLSYVVSP [S302A]
decreasing interaction | MSIAGVAAQEIRVPLKTGFLHNGRAMGNMRKTYWSSRSEFKNNFLNIDPITMAYSLNSSAQERLIPLGHASKSAPMNGHCFAENGPSQKSSLPPLLIPPSENLGPHEEDQVVCGFKKLTVNGVCASTPPLTPIKNSPSLFPCAPLCERGSRPLPPLPISEALSLDDTDCEVEFLTSSDTDFLLEDSTLSDFKYDVPGRRSFRGCGQINYAYFDTPAVSAADLSYVSDQNGGVPDPNPPPPQTHRRLRRSHSGPAGSFNKPAIRISNCCIHRASPNSDEDKPEVPPRVPIPPRPVKPDYRRWSAEVTSSTYSDEDRPPKVPPREPLSPSNSRTPSPKSLPSYLNGVMPPTQSFAPDPKYVSSKALQRQNAEGSASKVPCILPIIENGKKVSSTHYYLLPERPPYLDKYEKFFREAEETNGGAQIQPLPADCGISSATEKPDSKTKMDLGGHVKRKHLSYVVSP [S369A]
decreasing interaction | MSIAGVAAQEIRVPLKTGFLHNGRAMGNMRKTYWSSRSEFKNNFLNIDPITMAYSLNSSAQERLIPLGHASKSAPMNGHCFAENGPSQKSSLPPLLIPPSENLGPHEEDQVVCGFKKLTVNGVCASTPPLTPIKNSPSLFPCAPLCERGSRPLPPLPISEALSLDDTDCEVEFLTSSDTDFLLEDSTLSDFKYDVPGRRSFRGCGQINYAYFDTPAVSAADLSYVSDQNGGVPDPNPPPPQTHRRLRRSHSGPAGSFNKPAIRISNCCIHRASPNSDEDKPEVPPRVPIPPRPVKPDYRRWSAEVTSSTYSDEDRPPKVPPREPLSPSNSRTPAPKSLPSYLNGVMPPTQSFAPDPKYVSSKALQRQNSEGSASKVPCILPIIENGKKVSSTHYYLLPERPPYLDKYEKFFREAEETNGGAQIQPLPADCGISSATEKPDSKTKMDLGGHVKRKHLSYVVSP [S334A]
